Test [1] has as its target T1, human PD-L1 (human, UniProt Q9NZQ7 19-238).
T1 construct: Soluble antigen in Octet; bought; also called human PD-L1 (Acro PD1-H5229)
The test can be described thus: BLI (Octet), binder on AHC sensor, 100 nM human antigen, 1:1 fit.

The target of test [2] is T2, human EGFR (human, UniProt P00533 25-645, limits assumed).
T2 construct: Soluble antigen in Octet; construct not described
The test is described as above.

In test [3] the target is T3, human 4-1BB (human, UniProt Q07011 24-186, limits assumed).
T3 construct: Soluble antigen in Octet; construct not described
The description is as above.

In test [4] the target is T4, human CD3 (human, UniProt P07766 23-126; P04234 22-105).
T4 construct: also called His-tagged human CD3; human CD3 (Acro CDD-H52W1)
Described as above.

For test [5], the target named is T1, human PD-L1. The test can be described thus: antigen binding kinetics; method not given.
Test [6] has as its target T3, human 4-1BB. Kind of test: antigen binding kinetics; method not given.
Test [7] deals with T4, human CD3. The test can be described thus: antigen binding kinetics; method not given.
Test [8] concerns the target T5, CD19 (UniProt P15391 20-291, limits assumed).
T5 sequence (looked up): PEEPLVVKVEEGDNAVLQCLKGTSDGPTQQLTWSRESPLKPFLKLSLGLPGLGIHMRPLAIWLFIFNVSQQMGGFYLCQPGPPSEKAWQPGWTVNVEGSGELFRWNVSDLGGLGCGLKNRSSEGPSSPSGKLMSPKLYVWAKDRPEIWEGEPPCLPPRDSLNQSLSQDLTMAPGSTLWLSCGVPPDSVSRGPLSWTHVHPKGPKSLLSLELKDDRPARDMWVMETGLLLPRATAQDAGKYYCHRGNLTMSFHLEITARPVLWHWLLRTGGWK
Kind of test: antigen binding kinetics; method not given.

Broadly, the Kd is the concentration at which binding is half-saturated.

B1: SI-75P9 (other)
chain 1: EIVLTQSPSTLSVSPGERATFSCRASQSIGTNIHWYQQKPGKPPRLLIKYASESISGIPDRFSGSGSGTEFTLTISSVQSEDFAVYYCQQNNNWPTTFGPGTKLTVLGGGGSGGGGSGGGGSGGGGSQVQLQQSGPGLVKPSETLSITCTVSGFSLTNYGVHWIRQAPGKGLEWLGVIWSGGNTDYNTPFTSRFTITKDNSKNQVYFKLRSVRADDTAIYYCARALTYYDYEFAYWGQGTLVTVSSGGGGSGGGGSQVQLQESGGGLVKPGGSLRLSCAASGFTFSSYWMSWVRQAPGKGLEWVANINRDGSASYYVDSVKGRFTISRDDAKNSLYLQMNSLRAEDTAVYYCARDRGVGYFDLWGRGTLVTVSSASTKGPSVFPLAPSSKSTSGGTAALGCLVKDYFPEPVTVSWNSGALTSGVHTFPAVLQSSGLYSLSSVVTVPSSSLGTQTYICNVNHKPSNTKVDKRVEPKSCDKTHTCPPCPAPEAAGGPSVFLFPPKPKDTLMISRTPEVTCVVVDVSHEDPEVKFNWYVDGVEVHNAKTKPREEQYNSTYRVVSVLTVLHQDWLNGKEYKCAVSNKALPAPIEKTISKAKGQPREPQVYTLPPSRDELTKNQVSLSCAVKGFYPSDIAVEWESNGQPENNYKTTPPVLDSDGSFFLVSKLTVDKSRWQQGNVFSCSVMHEALHNHYTQKSLSLSPGGGGGSGGGGSDVVMTQSPSSVSASVGDRVTITCQASQNIRTYLSWYQQKPGKAPKLLIYAAANLASGVPSRFSGSGSGTDFTLTISDLEPGDAATYYCQSTYLGTDYVGGAFGGGTKLTVLGGGGSGGGGSGGGGSGGGGSEVQLVESGGGLVQPGGSLRLSCTASGFTISSYHMQWVRQAPGKGLEYIGTISSGGNVYYASSARGRFTISRPSSKNTVDLQMNSLRAEDTAVYYCARDSGYSDPMWGQGTLVTVSS
chain 2: DVVMTQSPSTLSASVGDRVTINCQASESISSWLAWYQQKPGKAPKLLIYEASKLASGVPSRFSGSGSGTEFTLTISSLQPDDFATYYCQGYFYFISRTYVNSFGGGTKVEIKGGGGSGGGGSGGGGSGGGGSEVQLVESGGGLVQPGGSLRLSCAASGFTISTNAMSWVRQAPGKGLEWIGVITGRDITYYASWAKGRFTISRDNSKNTLYLQMNSLRAEDTAVYYCARDGGSSAITSNNIWGQGTLVTVSSGGGGSGGGGSQSALTQPASVSGSPGQSITISCTGTSSDVGGYNFVSWYQQHPGKAPKLMIYDVSDRPSGVSDRFSGSKSGNTASLIISGLQADDEADYYCSSYGSSSTHVIFGGGTKVTVLRTPKANPTVTLFPPSSEELQANKATLVCLISDFYPGAVTVAWKADGSPVKAGVETTKPSKQSNNKYAASSYLSLTPEQWKSHRSYSCQVTHEGSTVEKTVAPTECSGGDKTHTCPPCPAPEAAGGPSVFLFPPKPKDTLMISRTPEVTCVVVDVSHEDPEVKFNWYVDGVEVHNAKTKPREEQYNSTYRVVSVLTVLHQDWLNGKEYKCAVSNKALPAPIEKTISKAKGQPREPQVYTLPPSRDELTKNQVSLWCLVKGFYPSDIAVEWESNGQPENNYKTTPPVLDSDGSFFLYSKLTVDKSRWQQGNVFSCSVMHEALHNRFTQKSLSLSPGGGGGSGGGGSDIQMTQSPSTLSASVGDRVTITCQASQSISSHLNWYQQKPGKAPKLLIYKASTLASGVPSRFSGSGSGTEFTLTISSLQPDDFATYYCQQGYSWGNVDNVFGGGTKVTVLGGGGSGGGGSGGGGSGGGGSEVQLLESGGGLVQPGGSLSLSCAASGFSFSSGYDMCWVRQAPGKGLEWIACIAAGSAGITYDANWAKGRFTISRDNSKNTLYLQMNSLRAEDTAVYYCARSAFSFDYAMDLWGQGTLVTVSS
notes: penta-miniGNC; D1 αEGFR, D2 αCD3, D3 αHER3 (Fab), D4 α4-1BB, D5 αPD-L1
With B1, the Kd in test [1] is 2.7 nM; in test [2], 11.1 nM; in test [3], 21.2 nM; in test [4], 20.1 nM.

B2: SI-38P11 (other)
chain 1: QIVLSQSPAILSASPGEKVTMTCRASSSVSYIHWFQQKPGSSPKPWIYATSNLASGVPVRFSGSGSGTSYSLTISRVEAEDAATYYCQQWTSNPPTFGGGTKLTVLGGGGSGGGGSGGGGSGGGGSQVQLQQPGAELVKPGASVKMSCKASGYTFTSYNMHWVKQTPGRGLEWIGAIYPGNGDTSYNQKFKGKATLTADKSSSTAYMQLSSLTSEDSAVYYCARSTYYGGDWYFNVWGAGTTVTVSSGGGGSGGGGSEVQLVESGGGLVQPGGSLRLSCAASGFTISTNAMSWVRQAPGKGLEWIGVITGRDITYYASWAKGRFTISRDNSKNTLYLQMNSLRAEDTAVYYCARDGGSSAITSNNIWGQGTLVTVSSASTKGPSVFPLAPSSKSTSGGTAALGCLVKDYFPEPVTVSWNSGALTSGVHTFPAVLQSSGLYSLSSVVTVPSSSLGTQTYICNVNHKPSNTKVDKRVEPKSCDKTHTCPPCPAPEAAGGPSVFLFPPKPKDTLMISRTPEVTCVVVDVSHEDPEVKFNWYVDGVEVHNAKTKPREEQYNSTYRVVSVLTVLHQDWLNGKEYKCAVSNKALPAPIEKTISKAKGQPREPQVYTLPPSRDELTKNQVSLSCAVKGFYPSDIAVEWESNGQPENNYKTTPPVLDSDGSFFLVSKLTVDKSRWQQGNVFSCSVMHEALHNHYTQKSLSLSPGGGGGSGGGGSDVVMTQSPSSVSASVGDRVTITCQASQNIRTYLSWYQQKPGKAPKLLIYAAANLASGVPSRFSGSGSGTDFTLTISDLEPGDAATYYCQSTYLGTDYVGGAFGGGTKLTVLGGGGSGGGGSGGGGSGGGGSEVQLVESGGGLVQPGGSLRLSCTASGFTISSYHMQWVRQAPGKGLEYIGTISSGGNVYYASSARGRFTISRPSSKNTVDLQMNSLRAEDTAVYYCARDSGYSDPMWGQGTLVTVSS
chain 2: ENVLTQSPASLSASPGERVTITCSASSSVSYMHWYQQKPGQAPKLWIYDTSKLASGVPSRFSGSGSGNDHTLTISSMEPEDFATYYCFQGSVYPFTFGQGTKVTVLGGGGSGGGGSGGGGSGGGGSQVTLKESGPGLVQPGQTLSLTCAFSGFSLSTSGMGVGWIRQPPGKGLEWLAHIWWDDDKRYNPALKSRLTISKDTSKNQVYLQMNSLDAEDTAVYYCARMELWSYYFDYWGQGTLVTVSSGGGGSGGGGSDVVMTQSPSTLSASVGDRVTINCQASESISSWLAWYQQKPGKAPKLLIYEASKLASGVPSRFSGSGSGTEFTLTISSLQPDDFATYYCQGYFYFISRTYVNSFGGGTKVEIKRTVAAPSVFIFPPSDEQLKSGTASVVCLLNNFYPREAKVQWKVDNALQSGNSQESVTEQDSKDSTYSLSSTLTLSKADYEKHKVYACEVTHQGLSSPVTKSFNRGECGGDKTHTCPPCPAPEAAGGPSVFLFPPKPKDTLMISRTPEVTCVVVDVSHEDPEVKFNWYVDGVEVHNAKTKPREEQYNSTYRVVSVLTVLHQDWLNGKEYKCAVSNKALPAPIEKTISKAKGQPREPQVYTLPPSRDELTKNQVSLWCLVKGFYPSDIAVEWESNGQPENNYKTTPPVLDSDGSFFLYSKLTVDKSRWQQGNVFSCSVMHEALHNRFTQKSLSLSPGGGGGSGGGGSDIQMTQSPSTLSASVGDRVTITCQASQSISSHLNWYQQKPGKAPKLLIYKASTLASGVPSRFSGSGSGTEFTLTISSLQPDDFATYYCQQGYSWGNVDNVFGGGTKVTVLGGGGSGGGGSGGGGSGGGGSEVQLLESGGGLVQPGGSLSLSCAASGFSFSSGYDMCWVRQAPGKGLEWIACIAAGSAGITYDANWAKGRFTISRDNSKNTLYLQMNSLRAEDTAVYYCARSAFSFDYAMDLWGQGTLVTVSS
notes: penta-miniGNC; D1 αCD20 scFv, D2 αCD19, D3 αCD3 Fab without additional disulphide, D4 α4-1BB, D5 αPD-L1 scFv
With B2, the Kd in test [5] is 1.1 nM; in test [6] it was 14.8 nM; in test [7], 5.23 nM; in test [8], 1.89 nM.

These data come from US20230114801A1 (SYSTIMMUNE, published 2023).
